Results reported in patent US8710032B2, “Inhibitors of the mevalonate pathway of Streptococcus pneumoniae” (Northwestern University, priority 2006, dated 2014).

Substrate: Nc1ncnc2c1ncn2[C@@H]1O[C@H](COP(=O)(O)OP(=O)(O)OP(=O)(O)O)[C@@H](O)[C@H]1O
Assay: Initial substrate results of analogues with mevalonate kinase (FIG. 8)
Format: biochemical, Streptococcus pneumoniae
Conditions: other: ATP
Method: FIG. 8. Initial substrate results [analogue] ranged from 2.0-2.5 mM, except #6 (4.2 mM) and #8 (6.2 mM).
A series of compounds related to compounds 4, 5, 23, and 25 can be synthesized as potential competitive or noncompetitive reversible inhibitors of MK and DPM-DC (See, e.g., FIGS. 6-7). The representative synthesis shown (Scheme 4a) is a modification of that shown in Scheme 4, and R is limited only by availability of the corresponding reagent and synthetic technique, as would be understood by those skilled in the art made aware of this invention (e.g., alkyl, vinyl, acetylenyl, aryl, heteroaryl, etc., via Grignard reaction with the corresponding magnesium bromide or chloride).

B1: mevalonate kinase (Streptococcus pneumoniae TIGR4) (protein)
chain: MTKKVGVGQAHSKIILIGEHAVVYGYPAISLPLLEVEVTCKVVPAESPWRLYEEDTLSMAVYASLEYLNITEACIRCEIDSAIPEKRGMGSSAAISIAAIRAVFDYYQADLPHDVLEILVNRAEMIAHMNPSGLDAKTCLSDQPIRFIKNVGFTELEMDLSAYLVIADTGVYGHTREAIQVVQNKGKDALPFLHALGELTQQAEVAISQKDAEGLGQILSQAHLHLKEIGVSSPEADFLVETTLSHGALGAKMSGGGLGGCIIALVTNLTHAQELAERLEEKGAVQTWIESL
  Km: 850 µM
